This passage reports Kd results from publication PMC1935004.

One series deals with T1, BLBlaI-NTD (Bacillus licheniformis, UniProt P06555 1-82).
T1 sequence: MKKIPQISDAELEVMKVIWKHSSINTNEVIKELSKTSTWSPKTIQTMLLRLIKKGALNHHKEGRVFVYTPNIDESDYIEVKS
The series can be described thus: NMR titration.

For another series, the target named is T2, SAMecI-NTD (Staphylococcus aureus, UniProt P68261 1-83).
T2 sequence: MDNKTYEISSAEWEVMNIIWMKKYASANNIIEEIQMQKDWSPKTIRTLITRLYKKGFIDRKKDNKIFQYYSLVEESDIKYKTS
The series can be described thus: NMR titration.

B1: 1/2OP1blaP (dsDNA)
DNA 1: AAAGTATTACAT
DNA 2: ATGTAATACTTT
As a reminder, the Kd is the concentration at which binding is half-saturated. The low end stands for tighter binding, the high end for weaker binding. For the molecule B1, the results for the Kd in the series with BLBlaI-NTD and in the series with SAMecI-NTD were 190 ± 50 µM and 860 ± 80 µM, respectively.
